Laboratory results reported in US20260234290A1, “Antibodies to Stat3 Decoy Oligonucleotide” (The Regents of the University of California, priority 2023, published 2026).

System: CS3D
Assay: BLI koff of purified Fabs from CS3D biopanning
Format: binding
Protocol: First, standard biopanning (FIG. 1) was performed with Ag immobilized magnetic beads. A total of six rounds were performed with increasing stringency of washes and decreasing amounts of Ag per round. Assuming strong enrichment occurred continuously throughout the campaign, 95 colonies were randomly picked each round 4-6 (285 clones total) for candidate hit screening.
In efforts to identify improved binders, BIAS was performed with identical clones picked previously that were randomly sequenced. […] Therefore, we hypothesized that strong growth/display propensity biases were a dominant factor during the campaign, leading primarily to the identification of low-affinity binders.
Fluorescent activated sorting was applied to round 4 as both the population percentage and the normalized MFI of the shoulder population are the highest (FIG. 7). The shoulder population (top ~4%) was sorted along with the majority population (bottom ~96%) and both populations were used to infect TG1 (E. coli) cells. […] BIAS hits of the top ~4% sorted population were sequenced, and a new candidate binder, SP1-B3, was identified, along with identical clones of previously identified low-affinity binders.
All buffers were filter sterilized with […] filters prior to preparing samples. Black 384 well microplates were used to set up BLI plates and streptavidin tips were purchased by Sartorius. Kinetic constants of Fabs were determined by Octet RED384 system with continuous shaking at 1000 rpm in RT. Prior to the experiment, biological tips (model name) were presoaked in buffer to allow for equilibration for 1 hour. Data were analyzed using 1:1 interaction model on the ForteBio data analysis software 12.0.
Freshly transformed BL21 (DE3) E. coli single colony clones were picked and inoculated into 50 ml of 2×YT media containing 2% glucose and […] Ampicillin. Starter cultures were grown overnight at 37 °C with 200 rpm shaking. […]

B1: SP1-B3: anti-CS3D Fab from RAPID sorting of round 4; VH SEQ ID NO: 3, VL SEQ ID NO: 4 (antibody, V domains shown)
VH: QVTLQQSGPGLVKPSQTLSLTCAISGDSVSSNSAAWNWIRQSPSRGLEWLGRTYYRSKWFTYYAASVKGRISINRDTSKNQFSLQLNSVTPDDTAVYFCARGSGGYIDHWGQGTLVTVSS
VL: QAVLTQPSSLSASPGASASLTCTLRSGINVDSYRIYWYQQKPGSPPQYLLRYKSDSDKQQGSGVPSRFSGSKDASANAGILLISGLQSEDEADYYCMIWHSSAVVFGGGTKLTVL
koff fold lower than the Fab with the highest koff: > 20 fold | koff fold lower than the previously identified Fab with the lowest koff: ~ 3 fold | koff (measured at 2 μM Fab): 0.0211 s⁻¹
